Numbering of substitutions follows the chain as printed. Numbers in names are those of the source.

Common to all, as to experiment: fluorescence polarisation
The target of test [1] is eIF1-TAMRA (S. cerevisiae) (UniProt P32911).
Test [2] addresses eIF5-TAMRA (S. cerevisiae) (UniProt P38431).
For another test, the target named is eIF4B-Fl (S. cerevisiae) (UniProt P34167).
For test [3], the target named is T1, eIF4G1 (yeast eIF4G, wild type) (S. cerevisiae, UniProt P39935 1-952).
T1 sequence (looked up): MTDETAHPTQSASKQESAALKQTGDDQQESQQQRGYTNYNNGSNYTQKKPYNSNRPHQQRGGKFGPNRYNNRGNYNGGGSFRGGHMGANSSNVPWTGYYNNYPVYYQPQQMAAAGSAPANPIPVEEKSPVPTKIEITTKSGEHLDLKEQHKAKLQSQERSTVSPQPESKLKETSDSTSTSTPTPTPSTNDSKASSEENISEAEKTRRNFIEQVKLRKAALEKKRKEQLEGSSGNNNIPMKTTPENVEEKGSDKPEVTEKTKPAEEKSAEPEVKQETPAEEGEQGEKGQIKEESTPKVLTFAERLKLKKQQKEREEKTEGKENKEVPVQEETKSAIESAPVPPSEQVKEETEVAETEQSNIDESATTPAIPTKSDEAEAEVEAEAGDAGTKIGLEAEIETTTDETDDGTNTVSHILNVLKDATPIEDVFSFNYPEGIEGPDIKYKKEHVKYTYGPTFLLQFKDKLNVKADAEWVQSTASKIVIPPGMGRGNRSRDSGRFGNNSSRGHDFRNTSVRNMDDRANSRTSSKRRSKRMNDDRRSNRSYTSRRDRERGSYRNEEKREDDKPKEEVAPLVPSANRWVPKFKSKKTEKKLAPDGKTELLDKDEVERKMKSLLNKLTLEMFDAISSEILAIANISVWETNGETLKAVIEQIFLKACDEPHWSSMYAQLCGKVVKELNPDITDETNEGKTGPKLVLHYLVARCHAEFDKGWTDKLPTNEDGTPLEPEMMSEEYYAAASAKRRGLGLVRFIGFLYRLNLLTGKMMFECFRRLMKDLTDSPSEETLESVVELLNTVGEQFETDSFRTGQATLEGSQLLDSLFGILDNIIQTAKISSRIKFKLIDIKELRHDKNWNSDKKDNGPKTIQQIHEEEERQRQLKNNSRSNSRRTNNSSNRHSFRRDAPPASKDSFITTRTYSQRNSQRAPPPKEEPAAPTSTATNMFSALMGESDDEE

In the next test the target is T2, eIF4E•eIF4G complex (S. cerevisiae, UniProt P07260 1-213; P39935 1-952).
T2 sequence (looked up) 1: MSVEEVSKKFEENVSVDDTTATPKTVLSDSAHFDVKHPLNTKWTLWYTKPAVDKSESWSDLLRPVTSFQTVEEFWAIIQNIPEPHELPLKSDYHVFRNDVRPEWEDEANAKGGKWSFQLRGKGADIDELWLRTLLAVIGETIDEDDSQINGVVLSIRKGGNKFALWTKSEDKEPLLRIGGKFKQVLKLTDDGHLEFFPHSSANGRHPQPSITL
T2 sequence (looked up) 2: T1 sequence (looked up)

Chain of eIF5-TAMRA (S. cerevisiae) (P38431 whole entry): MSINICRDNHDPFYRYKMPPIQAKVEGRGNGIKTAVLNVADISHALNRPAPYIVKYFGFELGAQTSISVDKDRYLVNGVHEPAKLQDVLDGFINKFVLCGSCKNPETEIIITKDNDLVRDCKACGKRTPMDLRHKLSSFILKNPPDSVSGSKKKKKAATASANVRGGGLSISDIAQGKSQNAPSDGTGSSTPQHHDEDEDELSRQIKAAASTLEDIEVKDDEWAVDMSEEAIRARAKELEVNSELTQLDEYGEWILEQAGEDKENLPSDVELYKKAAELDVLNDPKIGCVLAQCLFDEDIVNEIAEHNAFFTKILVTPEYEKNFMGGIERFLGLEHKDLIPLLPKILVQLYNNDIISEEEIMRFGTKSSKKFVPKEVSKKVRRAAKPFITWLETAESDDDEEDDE
Chain of eIF1-TAMRA (S. cerevisiae) (P32911 whole entry): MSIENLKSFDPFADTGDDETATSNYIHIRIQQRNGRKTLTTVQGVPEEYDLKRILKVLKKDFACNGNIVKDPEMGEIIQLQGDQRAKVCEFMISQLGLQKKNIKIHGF

Regarding eIF3 (yeast multisubunit complex), the values for the Kd (in test [1]; in test [2]; with eIF4B-Fl (S. cerevisiae)) were 115 nM, 15 nM and 380 nM, respectively.

B1: eIF4A-TAMRA (enzyme, S. cerevisiae, UniProt P10081 1-395, looked up)
chain: MSEGITDIEESQIQTNYDKVVYKFDDMELDENLLRGVFGYGFEEPSAIQQRAIMPIIEGHDVLAQAQSGTGKTGTFSIAALQRIDTSVKAPQALMLAPTRELALQIQKVVMALAFHMDIKVHACIGGTSFVEDAEGLRDAQIVVGTPGRVFDNIQRRRFRTDKIKMFILDEADEMLSSGFKEQIYQIFTLLPPTTQVVLLSATMPNDVLEVTTKFMRNPVRILVKKDELTLEGIKQFYVNVEEEEYKYECLTDLYDSISVTQAVIFCNTRRKVEELTTKLRNDKFTVSAIYSDLPQQERDTIMKEFRSGSSRILISTDLLARGIDVQQVSLVINYDLPANKENYIHRIGRGGRFGRKGVAINFVTNEDVGAMRELEKFYSTQIEELPSDIATLLN
modifications: TAMRA label, attached by expressed protein ligation
In turn, B1 came in with a Kd in test [3] of 200 nM. The binding result with eIF4E•eIF4G complex was “binds”.

B2: eIF4E-Fl (yeast eIF4E S200C labelled with fluorescein maleimide) (natural protein, S. cerevisiae, UniProt P07260 1-213, looked up)
chain: T2 sequence (looked up) 1 with S200C
modifications: fluorescein maleimide on the introduced cysteine (S200C)
B2 registered a Kd in test [3] of less than 15 nM.

The record behind these values is PMC2945613 (Molecular cell, 2010).
